From the supplement of paper PMC7877785
± gives the uncertainty stated by the source.

Assay: self-splicing fitness, log relative to wild type (ln ratio); higher = more splicing; Tetrahymena group I intron in knt gene, E. coli kanamycin selection, DiMSum; sequences stand for … in CUCUCU…GGAGGGAAAAGUUAUCAGGCAUGCACCUGGUAGCUAGUCUUUAAACCAAUAGAUUGCAUCGGUUUAAAAGGCAAGACCGUCAAAUUGCGGGAAAGGGGUCAACAGCCGUUCAGUACCAAGUCUCAGGGGAAACUUUGAGAUGGCCUUGCAAAGGGUAUGGUAAUAAGCUGACGGACAUGGUCCUAACCACGCAGCCAAGUCCUAAGUCAACAGAUCUUCUGUUGAUAUGGAUGCAGUUCACAGACUAAAUGUCGGUCGGGGAAGAUGUAUUCUUCUCAUAAGAUAUAGUCGGACCUCUCCUUAAUGGGAGCUAGCGGAUGAAGUGAUGCAACACUGGAGCCGCUGGGAACUAAUUUGUAUGCGAAAGUAUAUUGAUUAGUUUUGGAGUACUCGUGGUCG
In short: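 Library with all eight P1ex-region intron nucleotides randomised, intron inside the knt kanamycin-resistance gene on pET-22b(+), in E. coli BL21(DE3). Cells grew overnight at 37°C or 30°C on LB agar with or without 25 μg/mL kanamycin (plus 100 μg/mL carbenicillin, 50 μM IPTG, 0.2% rhamnose), in six replicate transformations. Pooled colonies were amplicon-sequenced on Illumina HiSeq 2500. DiMSum fitness is the error-weighted combination of wild-type-normalised replicate fold changes, kanamycin versus none.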

Row | Sequence | self-splicing fitness (ln) (30 °C) | self-splicing fitness (ln) (37 °C)
1 | GUGCAGCAAUAUUACGAAGC | -1.05 ± 0.14 | -1.36 ± 0.19
2 | GUGCAGCAAUAUUACGACCA | -0.711 ± 0.1 | -0.667 ± 0.13
3 | GUGCAGCAAUAUUACGACUA | -0.908 ± 0.24 | -0.48 ± 0.26
4 | GUGCAGCAAUAUUACGACUU | -0.219 ± 0.087 | 0.408 ± 0.093
5 | GUGCAGCAAUAUUACGAGAG | -2.23 ± 0.15 | -2.42 ± 0.2
6 | GUGCAGCAAUAUUACGAGUC | -2.57 ± 0.1 | -0.808 ± 0.099
7 | GUGCAGCAAUAUUACGAGUG | -2.2 ± 0.15 | -2.11 ± 0.17
8 | GUGCAGCAAUAUUACGAUCA | -1.14 ± 0.1 | -0.487 ± 0.12
9 | GUGCAGCAAUAUUACGAUGC | -0.245 ± 0.11 | 0.208 ± 0.17
10 | GUGCAGCAAUAUUACGCAAG | -1.5 ± 0.1 | -0.974 ± 0.12
11 | GUGCAGCAAUAUUACGCAAU | -1.75 ± 0.085 | -1.37 ± 0.12
12 | GUGCAGCAAUAUUACGCACC | – | -1.79 ± 0.35
13 | GUGCAGCAAUAUUACGCACG | -2.88 ± 0.38 | -2.85 ± 0.45
14 | GUGCAGCAAUAUUACGCCGU | -2.77 ± 0.23 | -0.412 ± 0.18
15 | GUGCAGCAAUAUUACGCGAC | -3.59 ± 0.34 | -1.8 ± 0.2
16 | GUGCAGCAAUAUUACGCGAU | -3.78 ± 0.31 | -1.45 ± 0.31
17 | GUGCAGCAAUAUUACGCGGU | -2.93 ± 0.19 | -2.94 ± 0.32
18 | GUGCAGCAAUAUUACGGAAC | -2.17 ± 0.23 | -1.12 ± 0.33
19 | GUGCAGCAAUAUUACGGAAU | -2.01 ± 0.073 | -0.012 ± 0.087
20 | GUGCAGCAAUAUUACGGCAG | -2.71 ± 0.33 | -1.04 ± 0.25
21 | GUGCAGCAAUAUUACGGGCG | -1.82 ± 0.092 | -0.512 ± 0.11
22 | GUGCAGCAAUAUUACGUAAA | -0.491 ± 0.084 | -1.05 ± 0.11
23 | GUGCAGCAAUAUUACGUAAC | -1.63 ± 0.15 | -0.239 ± 0.14
24 | GUGCAGCAAUAUUACGUCCG | -3 ± 0.22 | -0.37 ± 0.18
25 | GUGCAGCAAUAUUACGUCGG | -2.84 ± 0.16 | -1.47 ± 0.17

Row | Sequence | self-splicing fitness (ln) (30 °C) | self-splicing fitness (ln) (37 °C)
26 | GUGCAGCAAUAUUACGUGUG | -2.95 ± 0.11 | -1.33 ± 0.1
27 | GUGCAGCAAUAUUACGUGUU | -1.99 ± 0.081 | -1.22 ± 0.084
28 | GUGCAGCAAUAUUACGUUUU | -2.08 ± 0.096 | -1.69 ± 0.096
29 | GUGGAGCAAUAUUACGAAGA | – | -2.05 ± 0.49
30 | GUGGAGCAAUAUUACGAGCG | -3.52 ± 0.38 | -1.62 ± 0.31
31 | GUGGAGCAAUAUUACGAGGG | -4.4 ± 0.33 | –
32 | GUGGAGCAAUAUUACGAUGG | – | -2.9 ± 0.38
33 | GUGGAGCAAUAUUACGCAUA | – | -1.1 ± 0.4
34 | GUGGAGCAAUAUUACGCCUC | -3.07 ± 0.3 | -1 ± 0.25
35 | GUGGAGCAAUAUUACGCCUG | -2.7 ± 0.23 | –
36 | GUGGAGCAAUAUUACGGCUG | -2.49 ± 0.21 | -2.1 ± 0.32
37 | GUGGAGCAAUAUUACGGGAA | -2.15 ± 0.28 | -3.23 ± 0.35
38 | GUGGAGCAAUAUUACGGGGU | -3.24 ± 0.44 | -2.26 ± 0.42
39 | GUGGAGCAAUAUUACGGUCC | -2.12 ± 0.19 | -1.91 ± 0.24
40 | GUGGAGCAAUAUUACGUAAA | -1.5 ± 0.21 | -2.18 ± 0.47
41 | GUGGAGCAAUAUUACGUCAA | -1.28 ± 0.33 | -1.78 ± 0.32
42 | GUGGAGCAAUAUUACGUCAG | – | -2.43 ± 0.46
43 | GUGGAGCAAUAUUACGUGAU | -2.49 ± 0.12 | -1.6 ± 0.12
44 | GUGGAGCAAUAUUACGUUAC | -2.99 ± 0.24 | -2.5 ± 0.3
45 | GUGGAGCAAUAUUACGUUGA | -3.13 ± 0.47 | -1.5 ± 0.25
46 | GUGGAGCAAUAUUACGUUUA | -3.33 ± 0.2 | -2.26 ± 0.33
47 | GUGUAGCAAUAUUACGAAUC | -1.43 ± 0.17 | -0.973 ± 0.14
48 | GUGUAGCAAUAUUACGACGA | -0.571 ± 0.14 | -0.584 ± 0.16
49 | GUGUAGCAAUAUUACGACGC | -1.8 ± 0.18 | -0.0871 ± 0.22
50 | GUGUAGCAAUAUUACGAUAC | -2.23 ± 0.25 | -1.01 ± 0.25
